Experimental data reported in patent US20160244527A1 (AFFITECH RESEARCH, published 2016).

Legend:
[1] = target: T1, CXC chemokine receptor 4 (CXCR4), human (human, UniProt P61073 1-352); experiment: cell-based or functional assay
[2] = target: T1, CXC chemokine receptor 4 (CXCR4), human; experiment: EasyCyte flow cytometry, IgG titration (12 points, three-fold) on Ramos cells naturally expressing CXCR4; RPE goat anti-human IgG detection
Method: The cells were harvested from culture flasks, washed 2 times with PBS (350×g, 5 min, 4° C.) and resuspended in PBS containing 0.2% BSA and 0.09% NaN₃. 1×10⁵ cells per well were aliquoted into V-shaped 96-well plates (Greiner Bio-One, Frikenhausen, Germany). The cells were centrifuged (350×g, 5 min, 4° C.) and resuspended in 50 μl IgG (50 μg/ml) in PBS containing 0.2% BSA and 0.09% NaN₃. Titration was done in twelve points and three fold dilution. […] Cells were washed, resuspended in 200 μl PBS with 0.2% BSA and 0.09% NaN₃, and transferred to a U-shaped 96 well Costar (Corning, Schiphol-Rijik, The Netherlands) plate for flow cytometry using an Easy Cyte device (Guava Technologies, Hayward, Calif., USA).

[3] = target: T1, CXC chemokine receptor 4 (CXCR4), human; experiment: cell-based or functional assay; remark: listed apart in the source
[4] = target: T1, CXC chemokine receptor 4 (CXCR4), human; experiment: flow cytometry (EasyCyte), IgG1 10 µg/ml on CCRF-CEM cells; PBS negative control 3.11
Method: The natural CXCR4⁺ expressing cell line CCRF-CEM was harvested from the culture flasks, washed 2 times with PBS supplemented with 0.2% BSA and 0.09% NaN₃ buffer and aliquoted at 1×10⁵ cells per well into V-shaped 96-well plates (Greiner Bio-One, Frickenhausen, Germany). Cells were pelleted by centrifugation (400 g, 5 min) and then incubated for 60 min at 4° C. with 50 μl IgGs diluted to 10 μg/ml in PBS supplemented with 0.2% BSA and 0.09% NaN₃ buffer. The supernatants were aspirated after a centrifugation step at 400 g for 5 min and the cells were washed another two times with 100 μl PBS supplemented with 0.2% BSA and 0.09% NaN₃ each wash was followed by a centrifugation step (5 min at 400 g). After, the cells were stained for 30 minutes at 4° C. with 50 μl of rPE-conjugated Goat anti-human IgG (AbD Serotec) diluted to 5 μg/ml in with PBS supplemented with 0.2% BSA and 0.09% NaN₃ and incubated for 30 minutes at 4° C. The cells were washed again and re-suspended in 200 μl PBS with 0.2% BSA and 0.09% NaN₃ and transferred to a U-shaped 96-well plate (Corning) for flow cytometry using an EasyCyte device (Guava Technologies, Hayward, Calif., USA).

[5] = target: T2, monkey (Macaca mulatta) CXCR4 (monkey (Macaca mulatta), UniProt P79394 1-352); experiment: EasyCyte flow cytometry on HEK293T/17 cells transiently transfected with Macaca mulatta CXCR4, Fugene without DNA as negative control; scFv level according to the example, amount not given
T2 construct: whole, on cells; also called monkey CXCR4; monkey antigen
Method: FACS-binding analyses (EasyCyte) were performed using HEK-293 cells transiently transfected with plasmids encoding either, mouse (Gene bank accession number BC031665) or monkey (Macaca mulatta) CXCR4 (NCBI Accession number NP_001036110). Two experiments were performed, one using a-cMyc and PE-labelled goat anti-mouse IgG antibody, the second using a directly conjugated RPE-c-Myc antibody for detection. In addition, cross-reactivity on IgG level was analysed. In the latter case, antibody binding was detected with PE-conjugated goat anti-human IgG antibody.

[6] = target: T1, CXC chemokine receptor 4 (CXCR4), human; experiment: EasyCyte flow cytometry, 0.5 µg scFv on 1x10^5 CXCR4-transfected versus non-transfected HEK293T cells; anti-cMyc and RPE goat anti-mouse IgG detection
Method: The DT40+CXCR4, HEK293+CXCR4, DT40 and HEK293 cells were harvested from culture flasks, washed 2 times with PBS (400×g, 5 min, 4° C.) and resuspended in PBS containing 0.2% BSA and 0.09% NaN₃. 1×10⁵ cells per well were aliquoted into V-shaped 96-well plates (Greiner Bio-One, Frikenhausen, Germany). The cells were centrifuged (400×g, 5 min, 4° C.) and resuspended in 50 μl ScFvs (10 μg/ml) in PBS containing 0.2% BSA and 0.09% NaN₃. […] After 1 hour incubation (4° C.), the cells were washed three times with 100 μl PBS with 0.2% BSA and 0.09% NaN₃ and incubated for 30 minutes at 4° C. with RPE conjugated goat anti-mouse IgG (F0479, Dako, Denmark) diluted to 5 μg/ml in PBS with 0.2% BSA and 0.09% NaN₃. Cells were washed, resuspended in 200 μl PBS with 0.2% BSA and 0.09% NaN₃, and transferred to a U-shaped 96 well Costar (Corning, Schiphol-Rijik, The Netherlands) plate for flow cytometry using an Easy Cyte device (Guava Technologies, Hayward, Calif., USA).

T2 sequence (P79394 whole entry): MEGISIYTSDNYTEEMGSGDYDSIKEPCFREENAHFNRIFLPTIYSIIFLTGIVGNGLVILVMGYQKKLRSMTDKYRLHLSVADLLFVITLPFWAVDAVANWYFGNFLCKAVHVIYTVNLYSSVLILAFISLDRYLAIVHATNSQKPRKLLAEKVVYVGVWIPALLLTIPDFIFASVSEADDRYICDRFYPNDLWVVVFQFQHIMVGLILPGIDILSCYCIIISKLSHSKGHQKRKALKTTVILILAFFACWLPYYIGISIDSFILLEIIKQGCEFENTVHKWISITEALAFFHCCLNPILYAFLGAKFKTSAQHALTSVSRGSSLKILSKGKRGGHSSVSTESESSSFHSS
T1 sequence (P61073 whole entry): as the sequence (P79394 whole entry) above, with I24M, H35N, R38K, K146R, S176N, D214V counted along it

Binder	ADCC, EC50 (ng/mL), IgG [3] [ng/mL]	ADCC, EC50, IgG, molar [3] [nM]	ADCC, Max killing (%), CCRF-CEM cells with human PBMCs, IgG [3] [%]	median value (EasyCyte fluorescence) [4]	binding result [5]	also measured
9N10 IgG1 (antibody, V domains shown, Full length human IgG1 with kappa light chain) VH: QVQLQESGGGLVHPGGSLRLSCAASGFTFSSYWMHWVRQAPGKGLVWVSRINSDGSSTSYADSVKGRFTISRDNAKNTLYLQMNSLRAEDTAVYYCARKILGVGARSRRYFDYWGQGTMVTVSS VL: DIVLTQTPDSLAVSLGETTTINCKSSQSVLHSSNNKNYLAWYQQKPGQPPKLLIYWASTRESGVPDRFSGSGSGTDFTLTISNLQPEDVAFYYCLQYSTFPRTFGQGTKVEIKR	–	–	–	–	–	IC50 of inhibition of SDF-1α induced calcium flux, CCRF-CEM cells, IgG [1]: 3.85 nM; fold efficiency in inhibition of calcium flux against C-9P21 IgG [1]: ~8 fold; EC50 (read off the curve) [2]: ~10 nM
C-9P21 IgG1 (antibody, V domains shown, Full length human IgG1 with kappa light chain; expressed from pLNO, protein A purified, monomer by SEC; also called IgG C-9P21) VH: QVQLQESGGGLVHPGGSLRLSCAASGFTFSSYWMHWVRQAPGKGLVWVSRINSDGSSTSYADSVKGRFTISRDNAKNTLYLQMNSLRAEDTAVYYCARKILGVGARSRRYFDYWGQGTMVTVSS VL: ETTLTQSPGTLSLSPGERATLSCRASQSVVSNYLAWYQQKPGQAPRLLISGASNRATGISDRFSGSGSGADFTLTISRVEPEDSAVYYCQQFDKSTWTFGQGTKVEIKR	1850	12.3	63.5	626	–	IC50 of inhibition of SDF-1α induced calcium flux, CCRF-CEM cells, IgG [1]: 29 nM
B-1M22 scFv (scFv, VH-linker-VL scFv expressed in E. coli TG1 from pHOG21; also called scFv B-1M22) scFv: QVQLVQSGAEVKKPGSSVKVSCKASGGTFSSYAISWVRQAPGQGLEWMGGIIPIFGTANYAQKFQGRVTITADESTSTAYMELRSLRSDDTAVYYCARDRERWLQSAGDYWGQGTLVTVSSKLSGSASAPKLEEGEFSEARVQPVLTQSPSVSVAPGQTARITCGGNNIGSKSVHWYQQKPGQAPVLVVYDDSDRPSGIPERFSGSNSGNTATLTISRVEAGDEADYYCQVWDSSSDHWVFGGGTKLTVLAAAGSEQKLISEEDLNSHHHHHH	–	–	–	–	binds	–
B-1M22 IgG1 (antibody, V domains shown, Full length human IgG1 with lambda light chain; expressed from pLNO, protein A purified, monomer by SEC; also called IgG B-1M22) VH: QVQLVQSGAEVKKPGSSVKVSCKASGGTFSSYAISWVRQAPGQGLEWMGGIIPIFGTANYAQKFQGRVTITADESTSTAYMELRSLRSDDTAVYYCARDRERWLQSAGDYWGQGTLVTVSS VL: QPVLTQSPSVSVAPGQTARITCGGNNIGSKSVHWYQQKPGQAPVLVVYDDSDRPSGIPERFSGSNSGNTATLTISRVEAGDEADYYCQVWDSSSDHWVFGGGTKLTVLG	116	0.8	100	1080	–	–
C-1I24 IgG1 (antibody, V domains shown, Full length human IgG1 with lambda light chain; expressed from pLNO, protein A purified, monomer by SEC; also called IgG C-1I24; C-1124) VH: QVQLVQSGGGVVQPGRSLRLSCAASGFTFSSYGMHWVRQAPGKGLEWVAVISYDGSNKYYADSVKGRFTISRDNSKNTLYLQMNSLRAEDTAVYYCAKDLPITRGTGADYWGQGTLVTVSS VL: QSVLIQPASVSGSPGQSITISCTGTSSDVGGYNYVSWYQQHPGKAPRLMIYDVTSRPSGVSNRFSGSKSGNTASLTISGLQAEDEADYYCSSYAGSYSVVFGGGTKVTVLG	49.2	0.3	65	911	–	CDC of Ramos cells in presence of human serum, EC50, IgG [1]: 0.7 µg/mL
D-1K21 IgG1 (antibody, V domains shown, Full length human IgG1 with kappa light chain; expressed from pLNO, protein A purified, monomer by SEC; also called IgG D-1K21) VH: not shown VL: DIQMTQSPSTLSASVGDRVTITCRASQSIGGSLAWYQQKPGKGPNLLIYAASTLQSGVPSRFSGSGSGTEFTLTISSLQPEDSATYYCQHYESYPLSFGGGTKLEIKR	79.9	0.5	25.7	179	–	–
C-1I24 scFv (scFv, VH-linker-VL scFv expressed in E. coli TG1 from pHOG21; also called scFv C-1I24; C-1124) scFv: QVQLVQSGGGVVQPGRSLRLSCAASGFTFSSYGMHWVRQAPGKGLEWVAVISYDGSNKYYADSVKGRFTISRDNSKNTLYLQMNSLRAEDTAVYYCAKDLPITRGTGADYWGQGTLVTVSSKLSGSASAPKLEEGEFSEARVQSVLIQPASVSGSPGQSITISCTGTSSDVGGYNYVSWYQQHPGKAPRLMIYDVTSRPSGVSNRFSGSKSGNTASLTISGLQAEDEADYYCSSYAGSYSVVFGGGTKVTVLAAAGSEQKLISEEDLNSHHHHHH	–	–	–	–	binds	binding result [6]: binds
C-9P21 scFv (scFv, VH-linker-VL scFv expressed in E. coli TG1 from pHOG21; In the migration and ADCC assays it was cross-linked with anti-cMyc antibody; also called scFv C-9P21) scFv: QVQLQESGGGLVHPGGSLRLSCAASGFTFSSYWMHWVRQAPGKGLVWVSRINSDGSSTSYADSVKGRFTISRDNAKNTLYLQMNSLRAEDTAVYYCARKILGVGARSRRYFDYWGQGTMVTVSSKLSGSASAPKLEEGEFSEARVETTLTQSPGTLSLSPGERATLSCRASQSVVSNYLAWYQQKPGQAPRLLISGASNRATGISDRFSGSGSGADFTLTISRVEPEDSAVYYCQQFDKSTWTFGQGTKVEIKAAAGSEQKLISEEDLNSHHHHHH	–	–	–	–	binds	IC50 of inhibition of SDF-1 induced migration of CCRF-CEM cells (Boyden chamber; scFv cross-linked with anti-cMyc) [1]: 2.9 µg/mL; IC50 of inhibition of ligand induced migration of CCRF-CEM cells, molar [1]: ~100 nM; ADCC, EC50 (ng/mL), scFv cross-linked with chimeric anti-cMyc IgG1 [3]: 2.7 ng/mL; ADCC, EC50, scFv, molar [3]: 0.09 nM
